According to patent US20030104507A1, “Method for detection of ATP” (priority 2001, published 2003):
Positions count from the first letter of the chain named. Read-outs that look alike come from different tables or passages of the source.

Assays:
[1] = target: native firefly luciferase (Photinus pyralis, UniProt P08659); conditions: cited from earlier work
[2] = test system: LucPpe2m90; assay type: biochemical, Photuris pennsylvanica; conditions: for Half life: buffer; for Average rlu: 37° C.
Protocol: (§1) The stability of a reagent composition composition comprising LucPpe2 luciferase was compared to a reagent composition comprising LucPpe2m90 and a reagent composition comprising LucPpe2m146, in the presence and absence of 0.1% DTAB. These mutant luciferases are thermostable; they are described in detail in PCT application PCT/US99/30925, filed Dec. 22, 1999.
(§2) Each enzyme was diluted to 0.05 mg/ml to a final volume of 1.0 ml in either 25 mM HEPES, pH 8.0 or 20 mM citrate, pH 6.0; both with 100 mM NaCl, 1 mM EDTA, 0.1% gelatin and 5% glycerol. In half of the samples, 0.1% DTAB was added. The enzyme solutions (“reagent compositions”) were incubated at 37° C.
(§3) At various timepoints, 10 μl of enzyme solution was transferred to a 96-well luminometer plate in triplicate. Then, in triplicate, 100 μl room temperature luciferase assay reagent (1 mM luciferin, 0.2 mM ATP, 10 MM MgSO4 in 50 mM HEPES, pH 8.0) was added to each 10 μl enzyme solution aliquot, mixed and immediately read in a Dynex MLX microtiter plate luminometer. The ATP in the luciferase assay reagent is at a saturating concentration. The average rlu values are reported, as are the half lives of the reagent composition activity as measured by luminescence (Table P). Half-life was calculated using the formula log (0.5)/slope of the data plotted as time (x axis) versus log value of rlu. The time zero is actually about 2-3 minutes after the mixing of enzyme and substrate; this could account for the lower numbers in the presence of DTAB at time 0 than in the absence of DTAB.

[3] = test system: LucPpe2m146; assay type: biochemical, Photuris pennsylvanica; conditions: for Half life: buffer; for Average rlu: 37° C.
Protocol: as §1, §2, §3

Sequence of native firefly luciferase (P08659 whole entry): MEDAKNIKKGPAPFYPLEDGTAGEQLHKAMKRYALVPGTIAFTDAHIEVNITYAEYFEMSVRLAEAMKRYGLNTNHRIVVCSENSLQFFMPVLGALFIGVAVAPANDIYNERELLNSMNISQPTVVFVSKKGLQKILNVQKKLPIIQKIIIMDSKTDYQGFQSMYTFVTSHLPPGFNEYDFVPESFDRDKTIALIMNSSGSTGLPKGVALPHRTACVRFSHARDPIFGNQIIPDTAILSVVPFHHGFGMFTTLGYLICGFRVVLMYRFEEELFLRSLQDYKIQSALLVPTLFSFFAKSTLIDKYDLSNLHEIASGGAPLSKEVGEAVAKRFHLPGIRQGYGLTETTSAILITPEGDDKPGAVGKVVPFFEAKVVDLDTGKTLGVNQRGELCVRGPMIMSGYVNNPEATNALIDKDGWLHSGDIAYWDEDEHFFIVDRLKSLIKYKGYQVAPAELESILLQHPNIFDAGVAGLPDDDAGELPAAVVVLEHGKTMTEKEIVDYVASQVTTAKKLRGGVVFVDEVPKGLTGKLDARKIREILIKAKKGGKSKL

Cc1cc(C(C)(C)CC(C)(C)C)ccc1OCCOCC[N+](C)(C)Cc1ccccc1.[Cl-] [methylbenzethonium chloride]
effect on native firefly luciferase [1]: inactivated

benzalkonium chloride
effect on native firefly luciferase [1]: inactivated

B1: LucPpe2m90: mutant luciferase derived from LucPpe2, SEQ ID NO:2 (protein)
chain: MADKNILYGPEPFYPLEDGTAGEQMFDALSRYADIPGCIALTNAHTKENVLYEEFLKLSCRLAESFKKYGLKQNDTIAVCSENGLQFFLPVIASLYLGIIVAPVNDKYIERELIHSLGIVKPRIVFCSKNTFQKVLNVKSKLKSIETIIILDLNEDLGGYQCLNNFISQNSDSNLDVKKFKPYSFNRDDQVALIMFSSGTTGLPKGVMLTHKNIVARFSLAKDPTFGNAINPTTAILTVIPFHHGFGMMTTLGYFTCGFRVVLMHTFEEKLFLQSLQDYKVESTLLVPTLMAFLAKSALVEKYDLSHLKEIASGGAPLSKEIGEMVKKRFKLNFVRQGYGLTETTSAVLITPKGDAKPGSTGKIVPFHAVKVVDPTTGKILGPNEPGELYFKGPMIMKGYYNNEEATKAIIDNDGWLRSGDIAYYDNDGHFYIVDRLKSLIKYKGYQVAPAEIEGILLQHPYIVDAGVTGIPDEAAGELPAAGVVVQTGKYLNEQIVQDYVASQVSTAKWLRGGVKFLDEIPKGSTGKIDRKVLRQMFEKHTNG
modifications: Mutant of LucPpe2 luciferase
Half life ([2]; pH 6): 8.508 h
Half life ([2]; pH 8): 8.125 h
Average rlu ([2]; pH 6.0 + 0.1% DTAB, 0 min): 16263.53 rlu
Average rlu ([2]; pH 6.0 + 0.1% DTAB, 59 min): 15535.4 rlu
Average rlu ([2]; pH 6.0 + 0.1% DTAB, 123 min): 13421.5 rlu
Average rlu ([2]; pH 6.0 + 0.1% DTAB, 183 min): 14061.8 rlu
Average rlu ([2]; pH 6.0 + 0.1% DTAB, 239 min): 11924.03 rlu
Average rlu ([2]; pH 6.0, 0 min): 20031.03 rlu
Average rlu ([2]; pH 6.0, 59 min): 18453 rlu
Average rlu ([2]; pH 6.0, 123 min): 15966.03 rlu
Average rlu ([2]; pH 6.0, 183 min): 15546.4 rlu
Average rlu ([2]; pH 6.0, 239 min): 14519.63 rlu
Average rlu ([2]; pH 8.0 + 0.1% DTAB, 0 min): 22401.4 rlu
Average rlu ([2]; pH 8.0 + 0.1% DTAB, 59 min): 15332.67 rlu
Average rlu ([2]; pH 8.0 + 0.1% DTAB, 123 min): 12383.75 rlu
Average rlu ([2]; pH 8.0 + 0.1% DTAB, 183 min): 11271.25 rlu
Average rlu ([2]; pH 8.0 + 0.1% DTAB, 239 min): 9551.65 rlu
Average rlu ([2]; pH 8.0, 0 min): 15795.17 rlu
Average rlu ([2]; pH 8.0, 59 min): 15510.77 rlu
Average rlu ([2]; pH 8.0, 123 min): 13735.67 rlu
Average rlu ([2]; pH 8.0, 183 min): 13271.05 rlu
Average rlu ([2]; pH 8.0, 239 min): 11115.13 rlu

B2: LucPpe2m146: mutant luciferase derived from LucPpe2, SEQ ID NO:4 (protein)
chain: B1 chain with D34A, G84S, L193S, L220I, T234S, F367L, F538L
modifications: Mutant of LucPpe2 luciferase
Half life ([3]; pH 6): 13.68 h
Half life ([3]; pH 8): 9.925 h
Average rlu ([3]; pH 6.0 + 0.1% DTAB, 0 min): 5945.34 rlu
Average rlu ([3]; pH 6.0 + 0.1% DTAB, 61 min): 5989.65 rlu
Average rlu ([3]; pH 6.0 + 0.1% DTAB, 125 min): 3754.71 rlu
Average rlu ([3]; pH 6.0 + 0.1% DTAB, 183 min): 4839.58 rlu
Average rlu ([3]; pH 6.0 + 0.1% DTAB, 237 min): 4951.0 rlu
Average rlu ([3]; pH 6.0, 0 min): 7685.01 rlu
Average rlu ([3]; pH 6.0, 61 min): 7077.29 rlu
Average rlu ([3]; pH 6.0, 125 min): 5507.01 rlu
Average rlu ([3]; pH 6.0, 183 min): 6144.94 rlu
Average rlu ([3]; pH 6.0, 237 min): 6471.76 rlu
Average rlu ([3]; pH 8.0 + 0.1% DTAB, 0 min): 6445.57 rlu
Average rlu ([3]; pH 8.0 + 0.1% DTAB, 61 min): 6214.56 rlu
Average rlu ([3]; pH 8.0 + 0.1% DTAB, 125 min): 4018.92 rlu
Average rlu ([3]; pH 8.0 + 0.1% DTAB, 183 min): 4020.56 rlu
Average rlu ([3]; pH 8.0 + 0.1% DTAB, 237 min): 3734.59 rlu
Average rlu ([3]; pH 8.0, 0 min): 6652.84 rlu
Average rlu ([3]; pH 8.0, 61 min): 6577.91 rlu
Average rlu ([3]; pH 8.0, 125 min): 5192.73 rlu
Average rlu ([3]; pH 8.0, 183 min): 5476.86 rlu
Average rlu ([3]; pH 8.0, 237 min): 5174.22 rlu
